Source: patent US20220054630A1 (UNIVERSITY OF MARYLAND COLLEGE PARK, published 2022)

T1: CD81 large extracellular loop (LEL) (UniProt P60033 113-201)
T1 construct: domain: large extracellular loop (LEL); not shown: C-terminal twin Strep tag
T1 sequence: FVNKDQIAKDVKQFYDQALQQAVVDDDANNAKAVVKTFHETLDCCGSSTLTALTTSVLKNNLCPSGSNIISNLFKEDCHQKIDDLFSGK


What follows are binders tested against T1, CD81 large extracellular loop (LEL) (assay: BLI (Octet RED96), His6-tagged sE2 on Ni-NTA biosensors, CD81-LEL in solution).

Row | Binder | binding result
1 | sE2 design Triple (ΔHVR1-H445P-Y632NS) (other) KQNIQLINTNGSWHINSTALNCNESLNTGWLAGLFYQPKFNSSGCPERLASCRRLTDFAQGWGPISYANGSGLDERPYCWHYPPRPCGIVPAKSVCGPVYCFTPSPVVVGTTDRSGAPTYSWGANDTDVFVLNNTRPPLGNWFGCTWMNSTGFTKVCGAPPCVIGGVGNNTLLCPTDCFRKHPEATYSRCGSGPWITPRCMVDYPYRLWHYPCTINYTIFKVRMNVSGVEHRLEAACNWTRGERCDLEDRDRSE | binds
2 | sE2 design H445P (other) ETHVTGGSAGRTTAGLVGLLTPGAKQNIQLINTNGSWHINSTALNCNESLNTGWLAGLFYQPKFNSSGCPERLASCRRLTDFAQGWGPISYANGSGLDERPYCWHYPPRPCGIVPAKSVCGPVYCFTPSPVVVGTTDRSGAPTYSWGANDTDVFVLNNTRPPLGNWFGCTWMNSTGFTKVCGAPPCVIGGVGNNTLLCPTDCFRKHPEATYSRCGSGPWITPRCMVDYPYRLWHYPCTINYTIFKVRMYVGGVEHRLEAACNWTRGERCDLEDRDRSE | binds
3 | wild-type soluble E2 (sE2), HCV isolate H77C, residues 384-661 (other) ETHVTGGSAGRTTAGLVGLLTPGAKQNIQLINTNGSWHINSTALNCNESLNTGWLAGLFYQHKFNSSGCPERLASCRRLTDFAQGWGPISYANGSGLDERPYCWHYPPRPCGIVPAKSVCGPVYCFTPSPVVVGTTDRSGAPTYSWGANDTDVFVLNNTRPPLGNWFGCTWMNSTGFTKVCGAPPCVIGGVGNNTLLCPTDCFRKHPEATYSRCGSGPWITPRCMVDYPYRLWHYPCTINYTIFKVRMYVGGVEHRLEAACNWTRGERCDLEDRDRSE | binds
4 | sE2 design Y632NS (Y632N-G634S) (other) ETHVTGGSAGRTTAGLVGLLTPGAKQNIQLINTNGSWHINSTALNCNESLNTGWLAGLFYQHKFNSSGCPERLASCRRLTDFAQGWGPISYANGSGLDERPYCWHYPPRPCGIVPAKSVCGPVYCFTPSPVVVGTTDRSGAPTYSWGANDTDVFVLNNTRPPLGNWFGCTWMNSTGFTKVCGAPPCVIGGVGNNTLLCPTDCFRKHPEATYSRCGSGPWITPRCMVDYPYRLWHYPCTINYTIFKVRMNVSGVEHRLEAACNWTRGERCDLEDRDRSE | binds
